In patent US20240101645A1 (HENRY M JACKSON FOUNDATION FOR THE ADVANCEMENT OF MILITARY …, published 2024):

T1: MERS-CoV spike antigens (bead panel) (MERS-CoV, UniProt K9N5Q8 18-1296)
T1 sequence: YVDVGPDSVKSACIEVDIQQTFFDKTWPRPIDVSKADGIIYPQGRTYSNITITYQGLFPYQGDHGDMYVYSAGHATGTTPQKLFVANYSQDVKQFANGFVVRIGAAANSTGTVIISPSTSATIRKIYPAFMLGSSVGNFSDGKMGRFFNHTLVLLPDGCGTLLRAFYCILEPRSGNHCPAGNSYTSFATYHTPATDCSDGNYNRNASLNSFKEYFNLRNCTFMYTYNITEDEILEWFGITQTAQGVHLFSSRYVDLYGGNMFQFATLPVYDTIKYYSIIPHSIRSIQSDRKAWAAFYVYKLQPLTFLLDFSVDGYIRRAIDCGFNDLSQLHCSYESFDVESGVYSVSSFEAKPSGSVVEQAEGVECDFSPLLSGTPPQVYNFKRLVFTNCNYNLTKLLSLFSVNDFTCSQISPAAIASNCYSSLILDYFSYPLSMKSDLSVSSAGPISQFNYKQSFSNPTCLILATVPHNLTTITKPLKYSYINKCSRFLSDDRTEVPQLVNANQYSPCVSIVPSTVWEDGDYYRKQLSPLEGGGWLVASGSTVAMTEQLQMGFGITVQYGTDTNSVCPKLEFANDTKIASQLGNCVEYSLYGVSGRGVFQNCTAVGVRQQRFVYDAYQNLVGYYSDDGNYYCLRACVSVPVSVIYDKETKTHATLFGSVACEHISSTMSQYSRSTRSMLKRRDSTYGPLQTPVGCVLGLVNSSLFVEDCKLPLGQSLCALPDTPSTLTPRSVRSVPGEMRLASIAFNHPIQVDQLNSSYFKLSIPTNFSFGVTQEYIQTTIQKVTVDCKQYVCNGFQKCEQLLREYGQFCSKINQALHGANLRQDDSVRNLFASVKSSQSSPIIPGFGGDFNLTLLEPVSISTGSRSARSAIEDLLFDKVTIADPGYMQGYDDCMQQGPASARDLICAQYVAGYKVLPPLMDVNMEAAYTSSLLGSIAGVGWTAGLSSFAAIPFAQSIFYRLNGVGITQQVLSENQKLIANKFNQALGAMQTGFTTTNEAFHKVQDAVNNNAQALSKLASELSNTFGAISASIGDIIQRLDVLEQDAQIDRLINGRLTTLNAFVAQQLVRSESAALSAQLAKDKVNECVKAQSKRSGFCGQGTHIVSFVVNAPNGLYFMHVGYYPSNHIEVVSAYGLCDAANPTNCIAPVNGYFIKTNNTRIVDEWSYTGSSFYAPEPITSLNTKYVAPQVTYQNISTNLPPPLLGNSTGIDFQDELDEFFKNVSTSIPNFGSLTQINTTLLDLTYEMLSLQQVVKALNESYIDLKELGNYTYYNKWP

B1: COV_2123 (antibody, V domains shown)
VH: EVQLVESGGGVVQPGRSLRLSCAASGFTFSSYAMHWVRQAPGKGLEWVAVLSYDGSNKYNADSVKGRFTISRDNSKNTLYLQMNSLRVEDTAMYYCARDGVSVTMVRGVIGPLCDYWGQGTLVTVSS
VL: not shown
notes: human IgG1
B2: COV_2137 (antibody, V domains shown)
VH: EVQLVESGGGLVKPGGSLRLSCAASGFTFSSYTMNWVRQAPGKGLEWVSSISSGSSFIYYADSLRGRFTISRDNAKNSLYLQMNSLRAEDTAVYYCARAPEPQSVIYAYWYFDLWGRGTLVTVSS
VL: QSALTQPASVSGSPGQSITFSCTGTSSDVGSYNLVSWYQQYPGKAPKLMIYEVNKRPSGVSNRFSGSKSGNTASLTISGLQAEDEADYYCCSYAGSSTFYVFGTGTKVTVLG
notes: human IgG1
B3: COV_2025 (antibody, V domains shown)
VH: QVHLVQSGAEVKKPGASVKVSCKVSGYTLVELSVHWVRQAPAKGLEWIGGFDPEDGETIYAQKFQGRVTMTEDTSTDTAYMELTNLRSEDTAVYYCVTSQPFVSPNWFDPWGQGTLVTVSS
VL: QSALTQPASVSGSPGQSITISCTGTSRDVGAYNYVSWYQQHPGKAPKLMIYEVTTRPSGVSNRFSGSKSGNTASLTISGLQAEDEADYYCSSYTGSRTLVFGTGTKVTVL
notes: human IgG1
B4: COV_2039 (antibody, V domains shown)
VH: QVQLVQSGAEVKKPGASVKVSCKVSGYMLIELSMHWVRQAPGKGLEWMGGFDPEDAETIYAQEFQGRVTMTEDTSTDTAYMELSSLRSEDTAVYYCTTGPAVTNRPADYWGPGTLVTVSS
VL: QSVLTQPPSVSGAPGQRVTISCTGSSSNIGASYDVHWYQQLPGTAPKLLIYANSNRPSGVPDRFSGSKSGTSASLAITGLQAEDEADYYCQSYDSSLSYSVVFGGGTKLTVL
notes: human IgG1

What was measured:
[1] = target: SARS-CoV-2 S on pseudovirions (Wuhan Hu-1 / IL1/2020, last 18 amino acids removed) (SARS-CoV-2, UniProt P0DTC2 14-1273); experiment: cell-based or functional assay
[2] = target: T1, MERS-CoV spike antigens (bead panel); experiment: multiplex bead assay
[3] = target: SARS-CoV-1 spike antigens (bead panel) (SARS-CoV-1, UniProt P59594 14-1195); experiment: multiplex bead assay
SARS-CoV-2 NTD (1-290) [4] = target: T2, SARS-CoV-2 NTD (1-290) (SARS-CoV-2, UniProt P0DTC2 14-290); experiment: multiplex bead assay
T2 construct: range 1-290

SARS-CoV-2 NTD (1-290) [5] = target: T2, SARS-CoV-2 NTD (1-290); experiment: BLI, 1:1 model

Row | Binder | IC50, pseudotyped neutralization assay [1] [ng/mL] | binding result [2] | binding result [3] | binding result (SARS-CoV-2 NTD (1-290) [4]) | Kd (SARS-CoV-2 NTD (1-290) [5]) [pM]
1 | B1 | 4 |  |  |  | 
2 | B2 |  | no binding | no binding | binds | 
3 | B3 | 9 |  | no binding |  | < 1
4 | B4 | 6 |  | no binding |  | < 1
